Source: patent US5830699

Target: HA-SOK-1 (human)

“catalytic subunit of protein phosphatase 2A (enzyme)” gave an SOK-1 kinase activity of 40%.
